*1 amine or outer side, *2 acyl side, *3 side chain or, on linkers, in order; H or OH if unused. Where a SMILES comes first, the peptide text is derived from it. [ ]: non-standard residue; d: D form. The star is where a group is joined. ξ: configuration not given here. Exatecan = CC[C@@]1(O)C(=O)OCc2c1cc1n(c2=O)Cc2c-1nc1cc(F)c(C)c3c1c2[C@@H](N*)CC3; Dolaproine = CO[C@@H]([C@@H]1CCCN1)[C@@H](C)C(=O)O; X2 = CO[C@@H]([C@H]1CCCN1[*:1])[C@@H](C)C(=O)[*:2]; ξDil = CC[C@H](C)C([C@@H](CC(=O)[*:2])OC)N(C)[*:1]; Hexanoyl(6-maleimido) = O=C1C=CC(=O)N1CCCCCC(=O)*; Propanoyl(3-maleimido) = O=C1C=CC(=O)N1CCC(=O)*; Dil = CC[C@H](C)[C@H](NC)[C@@H](CC(=O)O)OC; PABC = O=C(OCc1ccc(N[*:1])cc1)[*:2]; NHCH2OCH2CO = O=C(COCN[*:1])[*:2]; X3 = C[C@@H](N*)[C@@H](O)c1ccccc1; NMeV = CN[C@H](C(=O)O)C(C)C
How the values were obtained:
[1] = Naked antibody content of antibody-drug conjugates by hydrophobic interaction chromatography (HIC); assay type: physicochemical; conditions: ADC with Her2 antibody
Protocol: The content of naked antibodies in the antibody-drug conjugate was tested using hydrophobic interaction chromatography (HIC). A Biocore HIC-Butyl chromatographic column (4.6×150 mm, 5 μm) was used. The mobile phase A was a 100 mM phosphate aqueous solution containing 2 M ammonium sulfate (pH 7.0), and the mobile phase B was a 100 mM phosphate aqueous solution (pH 7.0): isopropanol=80:20 (V/V). Samples of 50 μg and 10 μl were injected. The mobile phase A at the flow rate of 1 mL/min ran at 100% for 3 minutes. Within 3-25 minutes, the mobile phase B ran from […] to 100%, while the mobile phase B decreased to 0% at 25.1 and ran to 30 minutes. […] The naked antibody content of the antibody-drug conjugate was calculated using an area normalization method based on the retention time of a naked antibody peak located by the antibody of the antibody-drug conjugate.

[2] = assay type: physicochemical; conditions: ADC with Her2 antibody, RP-HPLC-MS
Protocol: A drug-antibody conjugating ratio (also known as drug-antibody ratio, abbreviated as DAR) of the antibody-drug conjugate was tested using reversed-phase high-performance liquid chromatography-mass chromatography (RP-HPLC-MS). The ADC sample was diluted with 50 mmol/L Tris buffer (pH 8.0) to 1 mg/ml. A fresh dithiothreitol (DTT) stock solution was added to achieve a final DTT concentration of 50 mmol/L. Incubation was performed at 37° C. for 30 minutes. A PLRP-S chromatographic column (1000 Å pores, 2.1×50 mm, 5) μm) was used, and the column temperature was 70° C. The flow rate was 0.25 mL/min. […] of sample was injected; the mobile phase A was an aqueous solution of 0.1% formic acid (V/V) and 0.025% trifluoroacetic acid (V/V), and the mobile phase B was an acetonitrile solution of 0.1% formic acid (V/V) and 0.025% trifluoroacetic acid (V/V); the running time was 0-3 minutes, where 27% of mobile phase B ran for 3 minutes, and the mobile phase B ran from 27% to 49% within 3-25 minutes, from 49% to 95% within 25-26 minutes, at 95% within […], from 95% to 27% within 30-31.5 minutes, and at 27% for 31.5-45 minutes. […] Mass spectrometry drying gas was at a temperature of 350° C. and a flow rate of 7.0 L/min, the pressure of an atomizer was 40 psi, capillary voltage was positive 3000V and negative 3000V, and the mass range was 500-1600 m/z. The molecular weight of each mass spectrometry peak (ranging from 20000 to 70000) was calculated by deconvolution and compared with light and heavy chain molecular weights of un-conjugated antibodies to calculate a drug load at each peak, so as to determine the load of a corresponding ultraviolet peak. Area percentages of heavy and light chain ultraviolet peaks were calculated through integration, and a weighted average DAR of the antibody-drug conjugate was calculated by combining the area percentages with the drug load distribution of each peak.

[3] = Polymer (high molecular component) content of antibody-drug conjugates by SE-HPLC; assay type: physicochemical; conditions: ADC with Her2 antibody
Protocol: Polymers (high molecular components) of the antibody-drug conjugates were tested using molecular exclusion high-performance liquid chromatography (SE-HPLC). A Biocore SEC chromatographic column (7.8×300 mm, […]) was used, and the mobile phase was 50 mM phosphate containing 300 mM sodium chloride (pH 6.8), with a flow rate of 0.5 mL/min. Samples of […] and 10 μl were injected. […] The polymer content of an antibody-drug conjugate was calculated using an area normalization method.

SMILES	Naked antibody content (%) [1]	DAR [2]	Polymer content (%) [3]
CC[C@H](C)[C@@H]([C@@H](CC(=O)N1CCC[C@H]1[C@H](OC)[C@@H](C)C(=O)N[C@H](C)[C@@H](O)c1ccccc1)OC)N(C)C(=O)[C@@H](NC(=O)[C@H](C(C)C)N(C)C(=O)OCc1ccc(NC(=O)CNC(=O)[C@H](Cc2ccccc2)NC(=O)CNC(=O)CNC(=O)CCCCCN2C(=O)C=CC2=O)cc1)C(C)C [Comparative Example 1, reference compound] ({Hexanoyl(6-maleimido)}-GGFG[PABC][NMeV]V[Dil][Dolaproine]-X3)	23.50%	1.03	38.31%
C=C1C[C@@H]2CC[C@@]34C[C@H]5OC6C(O[C@H]7CC[C@H](CC(=O)C[C@@H]8[C@@H](OC)[C@@H](C[C@H](O)CNC(=O)CNC(=O)[C@H](Cc9ccccc9)NC(=O)CNC(=O)CNC(=O)CCOCCOCCN(CCOCCOCCC(=O)NCC(=O)NCC(=O)N[C@@H](Cc9ccccc9)C(=O)NCC(=O)NCOCC(=O)N[C@H]9CCc%10c(C)c(F)cc%11nc%12c(c9c%10%11)Cn9c-%12cc%10c(c9=O)COC(=O)[C@]%10(O)CC)C(=O)CCCCCN9C(=O)C=CC9=O)O[C@H]8C[C@H]8O[C@@H](CC[C@@H]1O2)C[C@@H](C)C8=C)O[C@@H]7[C@@H]6O3)[C@H]5O4 [Comparative Example 3, reference compound]	60.77%	0.81	50.73%
CCc1c2c(nc3ccc(O)cc13)-c1cc3c(c(=O)n1C2)COC(=O)[C@@]3(CC)OC(=O)N(C)CCN(C)C(=O)COCNC(=O)CNC(=O)[C@H](Cc1ccccc1)NC(=O)CNC(=O)CNC(=O)CCN1C(=O)C=CC1=O [Comparative Example 6, reference compound]	9.06%	2.76	13.74%
C=C1C[C@@H]2CC[C@@]34C[C@H]5OC6C(O[C@H]7CC[C@H](CC(=O)C[C@@H]8[C@@H](OC)[C@@H](CC(O)CNC(=O)CNC(=O)[C@H](Cc9ccccc9)NC(=O)CNC(=O)CNC(=O)CCOCCOCCC(CCOCCOCCC(=O)NCC(=O)NCC(=O)N[C@@H](Cc9ccccc9)C(=O)NCC(=O)NCOCC(=O)N[C@H]9CCc%10c(C)c(F)cc%11nc%12c(c9c%10%11)Cn9c-%12cc%10c(c9=O)COC(=O)[C@]%10(O)CC)C9CCC(NC(=O)CCOCCOCCOCCOCCN%10C(=O)C=CC%10=O)CC9)O[C@H]8C[C@H]8O[C@@H](CC[C@@H]1O2)C[C@@H](C)C8=C)O[C@@H]7[C@@H]6O3)[C@H]5O4 (stereo partly shown) [Comparative Example 7, reference compound]	53.82%	0.86	60.31%
CC[C@H](C)C([C@@H](CC(=O)N1CCC[C@@H]1[C@H](OC)[C@@H](C)C(=O)N[C@H](C)[C@@H](O)c1ccccc1)OC)N(C)C(=O)[C@@H](NC(=O)[C@H](C(C)C)N(C)C(=O)OCc1ccc(NC(=O)CNC(=O)[C@H](Cc2ccccc2)NC(=O)CNC(=O)CNC(=O)CCN2C(=O)C=CC2=O)cc1)C(C)C (stereo partly shown) [Comparative Example 8, reference compound] ({Propanoyl(3-maleimido)}-GGFG[PABC][NMeV]V[ξDil][X2]-X3)	10.15%	2.57	12.37%
CC[C@@]1(O)C(=O)OCc2c1cc1n(c2=O)Cc2c-1nc1cc(F)c(C)c3c1c2[C@@H](NC(=O)COCNC(=O)CNC(=O)[C@H](Cc1ccccc1)NC(=O)CNC(=O)CNC(=O)CCCCCN1C(=O)C=CC1=O)CC3 [Comparative Example 14, reference compound] ({Hexanoyl(6-maleimido)}-GGFG[NHCH2OCH2CO]-Exatecan)	–	8.00	–
